The experiment has as its target T1, human GITR on cells (human, UniProt Q9Y5U5 26-241).
T1 chain: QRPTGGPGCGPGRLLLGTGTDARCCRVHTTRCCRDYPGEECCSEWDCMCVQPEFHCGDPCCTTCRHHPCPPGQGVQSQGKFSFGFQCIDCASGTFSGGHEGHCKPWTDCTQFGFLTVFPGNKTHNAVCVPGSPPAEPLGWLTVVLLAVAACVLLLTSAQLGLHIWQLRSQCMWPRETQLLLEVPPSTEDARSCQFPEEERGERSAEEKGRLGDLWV
Briefly: FACS binding to anti-CD3/CD28-activated human CD4 T cells.

B1: anti-GITR-IgG2 (antibody)
heavy: QVQLVESGGGVVQPGRSLRLSCAASGFTFSSYGMHWVRQAPGKGLEWVAVIWYEGSNKYYADSVKGRFTISRDNSKNTLYLQMNSLRAEDTAVYYCARGGSMVRGDYYYGMDVWGQGTTVTVSSASTKGPSVFPLAPCSRSTSESTAALGCLVKDYFPEPVTVSWNSGALTSGVHTFPAVLQSSGLYSLSSVVTVPSSNFGTQTYTCNVDHKPSNTKVDKTVERKCCVECPPCPAPPVAGPSVFLFPPKPKDTLMISRTPEVTCVVVDVSHEDPEVQFNWYVDGVEVHNAKTKPREEQFNSTFRVVSVLTVVHQDWLNGKEYKCKVSNKGLPAPIEKTISKTKGQPREPQVYTLPPSREEMTKNQVSLTCLVKGFYPSDIAVEWESNGQPENNYKTTPPMLDSDGSFFLYSKLTVDKSRWQQGNVFSCSVMHEALHNHYTQKSLSLSPGK
light: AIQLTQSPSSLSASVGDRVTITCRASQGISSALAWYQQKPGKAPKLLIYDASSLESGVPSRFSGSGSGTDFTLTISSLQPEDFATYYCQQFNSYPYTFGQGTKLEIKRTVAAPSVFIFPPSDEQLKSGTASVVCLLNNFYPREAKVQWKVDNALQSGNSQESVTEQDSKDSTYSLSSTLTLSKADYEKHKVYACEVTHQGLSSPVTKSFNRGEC
Molecule B1 yielded an EC50 of 0.277 nM.

B2: anti-GITR-IgG2-IgG1.1 (antibody)
heavy: QVQLVESGGGVVQPGRSLRLSCAASGFTFSSYGMHWVRQAPGKGLEWVAVIWYEGSNKYYADSVKGRFTISRDNSKNTLYLQMNSLRAEDTAVYYCARGGSMVRGDYYYGMDVWGQGTTVTVSSASTKGPSVFPLAPCSRSTSESTAALGCLVKDYFPEPVTVSWNSGALTSGVHTFPAVLQSSGLYSLSSVVTVPSSNFGTQTYTCNVDHKPSNTKVDKTVERKCCVECPPCPAPPVAGPSVFLFPPKPKDTLMISRTPEVTCVVVDVSHEDPEVKFNWYVDGVEVHNAKTKPREEQYNSTYRVVSVLTVLHQDWLNGKEYKCKVSNKALPSSIEKTISKAKGQPREPQVYTLPPSREEMTKNQVSLTCLVKGFYPSDIAVEWESNGQPENNYKTTPPVLDSDGSFFLYSKLTVDKSRWQQGNVFSCSVMHEALHNHYTQKSLSLSPG
light: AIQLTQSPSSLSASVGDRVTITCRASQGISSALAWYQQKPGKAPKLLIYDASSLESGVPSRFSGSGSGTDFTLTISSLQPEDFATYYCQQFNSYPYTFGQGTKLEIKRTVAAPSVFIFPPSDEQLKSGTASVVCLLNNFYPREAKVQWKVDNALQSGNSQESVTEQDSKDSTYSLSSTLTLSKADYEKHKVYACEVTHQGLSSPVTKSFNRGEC
In turn, B2 had an EC50 of 0.163 nM. Against the preceding molecule, the EC50 is about 1.7-fold lower.

By EC50 is commonly meant the concentration at which the effect is half-maximal.
